Results on 23 sequences are retold here after the supplement of paper PMC9170038.

The subject of the data set is MS2 coat protein. Nature of the data set: apparent KD of MS2 coat protein; designed switch direction (-1 OFF switch, 1 ON switch): -1; higher = weaker reporter binding. A digest of the protocol: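 The apparent KD reported per design is the median over clusters of curve fits to normalised cluster fluorescence. The RNA switches were transcribed on Illumina chips by stalled E. coli RNA polymerase. SNAP-549-labelled MS2 coat protein was titrated from 0.7 or 1.5 nM, doubling up to 3 µM, in Tris-HCl pH 7.5 buffer containing KCl, MgCl2, BSA, DTT, tRNA and Tween-20, with no input, 200 uM small-molecule ligand, or an oligonucleotide input.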

The mark [1] stands for this setting: Eterna round: R95, input ligand: FMN 200 uM.
Setting [2] is: Eterna round: R95, input ligand: microRNA oligo, concentration not stated.
Setting [3] is: Eterna round: R95, input ligand: none.
Setting [4] is: input ligand: microRNA oligo, concentration not stated.

As for “AGAUGGAAGCAGGAUAUGCUUGUAUAAUUGAAAGCAGAAGGGCUAACAUGAGGAUCACCCAUGUAAGAGGUGUA [JR_E6_Sub059] (puzzle: Exclusion 6)”, the “apparent KD of MS2 coat protein” value under setting [1] came out at 302 nM, the “apparent KD of MS2 coat protein” value under setting [2] was 282 nM and the “apparent KD of MS2 coat protein” value under setting [3] is 352 nM.
The matching figures for “AGAUGGCGAGGAUAUACAUGAGGAUCACCCAUGUGAGAGAAGAAAGUGAGGAAGAAAAGUAGAAGGCGCUGUCA [Mat - Exclusion 3 - Mod of Salish D11] (puzzle: Exclusion 3)”: 184 nM, 54.4 nM and 60 nM.
The matching figures for “AGAUGUAGAUACCGAUCCUACAUGAGGAUCACCCAUGUAGCUAGACGUGCUCGCGUGGCUCGUCAGACUACCAGUAG [salish99_TOv1_r3_091] (puzzle: Sensor v3, turn-off variant 1)”: 243 nM, 211 nM and 281 nM.
The matching figures for “AGAUGUAGAUACCGAUCCUACAUGAGGAUCACCCAUGUAGCUAGACGUGCUCGCGUUGCUCGUCAGACUACCAGUAG [salish99_TOv1_r3_088] (puzzle: Sensor v3, turn-off variant 1)”: 279 nM, 286 nM and 382 nM.
On to “AGAUGUUAUAAGGAUAUGCAGGCCAUCGCAUCAGCAGAAGGUGUAACAUGAGGAUCACCCAUGUAAACGAACUG [Eternabot (L1) Solution 44] (Eterna round: R97, puzzle: Exclusion 6)”, for which the “apparent KD of MS2 coat protein” value was 28.9 nM (input ligand: FMN 200 uM) and 22.8 nM (input ligand: none).
“AGCAUGCUAGGAUAUACGGGACAUUAGGGUUUGUCGUGUGGACAUGAGGAUCACCCAUGUAGAAGGAGCGUGCA [Mat - Exclusion 2 - Mod of Hyphema - D92] (puzzle: Exclusion 2)”: under setting [2], the “apparent KD of MS2 coat protein” value came out at 46.5 nM.
The same measure, in the same setting: in the case of “AGCAUGGUAGGAUAUACGGAACAUUAGGGUUUGUUAUGUGGACAUGAGGAUCACCCAUGUAGAAGGGCCGUGCA [Mat - Exclusion 2 - Mod of JL - D80] (puzzle: Exclusion 2)” it was 32.3 nM; in that of “AGCAUGUAAGGAUAUGUAACGCGGCUUUCAUUCGCCGUCCCACAGAAGGUACAUGAGGAUCACCCAUGUGCUCC [Solaisorin] (puzzle: Exclusion 4)”, 33.3 nM.
As to “AGCGAAGAGACAGGAUAUGAGAAUAGAUAGAGCUCAGAAGGGUCACAUGAGGAUCACCCAUGUAAAGUCUUGAGGCUGCGUGGU [Prohibition 10 - Jieux - Exclusion NG 1] (Eterna round: R96, puzzle: Exclusion NG 1)”, the “apparent KD of MS2 coat protein” value amounted to 123 nM (input ligand: FMN 200 uM), 41.1 nM under setting [4] and 61.7 nM (input ligand: none).
For “AGCGACCAAGGAUAUACAUGAGGAUCACCCAUGUCGGCGACCUUCCUGGGAUUUCUUAGUAGAAGGUGGUCAAU [Gesodieddi] (puzzle: Exclusion 3)”, the “apparent KD of MS2 coat protein” value under setting [2] is 35.2 nM.
In the case of “AGCGCCAUCGUGAGAUGGCGUAUUACAUGAGGAUCACCCAUGUAGGAUAUCGAUUGCUUUGCAGUCGAGAAGGACAUGUUCUAG [JL ENG3 3.80 Mod A] (Eterna round: R96, puzzle: Exclusion NG 3)”, the “apparent KD of MS2 coat protein” value by setting is: (input ligand: FMN 200 uM) 95.5 nM; under setting [4], 35.9 nM; (input ligand: none) 60.6 nM.
For “AGCGCCAUGCUCGUCUUACACAUGAGGAUCACCCAUGUUGGGUCUCAGAUGCGGUAAUAGCCCGUUGAAUCUAGUGG [Eternabot (L1) Solution 38] (Eterna round: R97, puzzle: Sensor, turn-off variant 1)”, the “apparent KD of MS2 coat protein” value turned out to be 182 nM (input ligand: FMN 200 uM) and 191 nM (input ligand: none).
For “AGCUAACGAACAGGAUAUCCAAAGCGAUAGCAGGGAGAAGGGUUCAGAACUUGAGGAUCACCCAAGUGGGCUGAGCUCGGGAAA [Mutated MS2 EX1.3] (Eterna round: R96, puzzle: Exclusion NG 1)”, the “apparent KD of MS2 coat protein” value was determined as 12 nM (input ligand: FMN 200 uM), 12.6 nM under setting [4] and 20.9 nM (input ligand: none).
On to “AGCUAGAUAGGAUAUGCCCGGGAUAACAUGAGGAUCACCCAUGUGGCCGAAUCAAAUCCAGCAGAAGGGUUUGGGA [Mod of ViennaUCT 12 - Jieux - Exclusion 5] (Eterna round: R97, puzzle: Exclusion 5)”, for which the “apparent KD of MS2 coat protein” value reads like this: (input ligand: FMN 200 uM) 30.8 nM; (input ligand: none) 38.7 nM.
Turning to “AGCUAGUGAGGAUAUACAAGAAUAUAAACGAACAUAAAGGGACAUGAGGAUCACCCAUGUAGAAGGCACUAGCA [Diamond 73] (Eterna round: R96, puzzle: Exclusion 2)”, the “apparent KD of MS2 coat protein” value under setting [4] worked out at 29.3 nM.
Regarding “AGCUAGUGCCGAGGAUAUACAUGAGGAUCACCCAUGUAGGCGUGAGGCUUUGUCUCACGCGAGAUGUAGAAGGCGGCGUUGGCA [JL ENG2 1.52] (Eterna round: R96, puzzle: Exclusion NG 2)”, the “apparent KD of MS2 coat protein” value (input ligand: FMN 200 uM) is 60.5 nM, the “apparent KD of MS2 coat protein” value under setting [4] stood at 14.1 nM and the “apparent KD of MS2 coat protein” value (input ligand: none) worked out at 21.7 nM.
Consider “AGCUGACGAGGAUAUACAUGAGGAUCACCCAUGUAAGAUCAGCGACGAUAGUCGCAAUGUAGAAGGCGUCAGCU [E3/10-A2] (Eterna round: R97, puzzle: Exclusion 3)”, for which the “apparent KD of MS2 coat protein” value stood at 299 nM (input ligand: FMN 200 uM) and 30.1 nM (input ligand: none).
Consider “AGCUGUGGCCAAGGAUAUCUAGCCUUAAAUACCGACGUAUAGUCGGACAUGAGGAUCACCCAUGUGGAGAAGGUGGUCUCAGCA [Eli eng2 - 044] (Eterna round: R96, puzzle: Exclusion NG 2)”, for which the “apparent KD of MS2 coat protein” value is 82 nM (input ligand: FMN 200 uM), 53 nM under setting [4] and 74.3 nM (input ligand: none).
The matching figures for “AGCUGUGGCCGAGGAUAUACACAUGAGGAUCACCCAUGUAGGCGCGGAUACGCGCUAAAAUAAGUGUAGAAGGCGGUCUCAGCA [Eli eng2 - 056] (Eterna round: R96, puzzle: Exclusion NG 2)”: 20.1 nM, 17.4 nM and 18.1 nM.
Take “AGCUGUGGCCGAGGAUAUCACGAACCAUGGAAAACCAUGGAACUCCUACAUGAGGAUCACCCAUGUGAGAAGGCGGUCUCAGCA [Eli eng2 - 020] (Eterna round: R96, puzzle: Exclusion NG 2)”: the “apparent KD of MS2 coat protein” value reads like this: (input ligand: FMN 200 uM) 109 nM; under setting [4], 33.4 nM; (input ligand: none) 52.1 nM.
Turning to “AGCUGUGGCCGAGGAUAUCUAACUUCAAAUACCGACGUAUAGUCGGACAUGAGGAUCACCCAUGUAGAGAAGGCGGUCUCAGCA [Eli eng2 - 037] (Eterna round: R96, puzzle: Exclusion NG 2)”, the “apparent KD of MS2 coat protein” value under setting [4] was determined as 12.3 nM.
Same read-out and setting: under “AGCUGUGGCCGAGGAUAUCUGAACCUUCAAACCGAAAUAUAAUCGGACAUGAGGAUCACCCAUGUAGAGAAGGCGGUCUCAGCA [Eli eng2 - 060] (Eterna round: R96, puzzle: Exclusion NG 2)” stands 9.95 nM; under “AGCUGUGGCCGAGGAUAUCUGAACUCAAUAACCGAAAUAUAAUCGGACAUGAGGAUCACCCAUGUAGAGAAGGCGGUCUCAGCA [Eli eng2 - 080] (Eterna round: R96, puzzle: Exclusion NG 2)”, 24.2 nM.
